Measured values as given in patent publication US20200157212A1 (Pfizer, published 2020).

Target: T1, Human ROBO2 Ig1-Ig2-His (human, UniProt Q9HCK4 31-220)
T1 construct: the His tag is named only in the SPR paragraphs; the Octet and ELISA paragraphs print 'ROBO2 Ig1-Ig2' without a tag; also called ROBO2 Ig1-2; Human ROBO2 Ig 1,2
T1 sequence: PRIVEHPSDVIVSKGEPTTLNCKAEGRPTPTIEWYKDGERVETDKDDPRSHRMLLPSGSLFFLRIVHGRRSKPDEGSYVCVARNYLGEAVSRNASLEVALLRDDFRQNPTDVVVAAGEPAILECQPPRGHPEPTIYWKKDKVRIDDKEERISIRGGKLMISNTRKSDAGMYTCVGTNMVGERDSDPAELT
Experiment: SPR, Biacore T200, Abcs35 immobilized on CM5 chip, ROBO2 Ig1-Ig2-His as analyte
Procedure: […] Association and dissociation were followed over time.
Based upon several criteria, Abcs25 and Abcs35 were selected for further characterization. Using flow cytometry, improvement in the binding EC₅₀ to human ROBO2 relative to the parental 93H2 was evaluated. Starting at 6.7 nM, 11-point, 3-fold dilution series were made for each antibody and used to stain HEK293 overexpressing human ROBO2 as described above for the ROBO2 fold selectivity (Example 2). […] In addition to measuring improved binding to human ROBO2, it was important to ensure that high affinity binding to both cynomolgus monkey ROBO2 and rat ROBO2 was maintained. Using HEK293 cells overexpressing either cynomolgus monkey ROBO2 or rat ROBO2, the relative dose-dependent binding of 93H2, Abcs25 and Abcs35 was evaluated as described above. High affinity binding to both cynomolgus monkey and rat ROBO2 was maintained in Abcs25 and Abcs35 (Table 4). […] Briefly, Abcs35 was immobilized to 300 resonance units (RU) on a CM5 chip. Association of ROBO2 Ig1-Ig2-His (ROBO2) was measured over 5 minutes and dissociation was followed for a period of 10 minutes.

B1: Abcs35 (antibody, human IgG1, kappa)
heavy: EVQLVQSGAEVKKPGASVKVSCKASGYTFTGYYMHWVRQAPGQGLEWMGWINPKNGDTEFPQKFQGRVTMTRDTSITTAYMDLSRLRSDDTAVYYCARESGDDAFDIWGQGTMVTVSSASTKGPSVFPLAPSSKSTSGGTAALGCLVKDYFPEPVTVSWNSGALTSGVHTFPAVLQSSGLYSLSSVVTVPSSSLGTQTYICNVNHKPSNTKVDKKVEPKSCDKTHTCPPCPAPEAAGAPSVFLFPPKPKDTLMISRTPEVTCVVVDVSHEDPEVKFNWYVDGVEVHNAKTKPREEQYNSTYRVVSVLTVLHQDWLNGKEYKCKVSNKALPAPIEKTISKAKGQPREPQVYTLPPSREEMTKNQVSLTCLVKGFYPSDIAVEWESNGQPENNYKTTPPVLDSDGSFFLYSKLTVDKSRWQQGNVFSCSVMHEALHNHYTQKSLSLSPGK
light: DIVMTQSPSSLSASVGDRVTITCRASQSISSYLNWYQQKPGKAPKLLIYAASSLQSGVPSRFSGSGSGTDFTLTISSLQPEDFATYYCQQSVGLFFGGGTKVEIKRTVAAPSVFIFPPSDEQLKSGTASVVCLLNNFYPREAKVQWKVDNALQSGNSQESVTEQDSKDSTYSLSSTLTLSKADYEKHKVYACEVTHQGLSSPVTKSFNRGEC
notes: fully human IgG1; VH of Ab96 with VL of Ab123
- Kd: 0.268 nM
